Results reported in paper PMC2980497.

Target: MutL (Escherichia coli) (UniProt P23367)
Experiment: single-molecule flow-extension
Conditions: 25 mM NaCl, 0.5 mM ATP, 2.5 pN; S0.5, multiple MutL bind; smFRET: 20 mM Tris-HCl pH 7.5, 25-150 mM NaCl (25 mM standard), 0.1 mM EDTA, 3 mM MgCl2, 0.5 mM ATP, 1 mM DTT, oxygen scavenger with 2 mM trolox …

Sequence of UniProt P23367 (P23367 whole entry): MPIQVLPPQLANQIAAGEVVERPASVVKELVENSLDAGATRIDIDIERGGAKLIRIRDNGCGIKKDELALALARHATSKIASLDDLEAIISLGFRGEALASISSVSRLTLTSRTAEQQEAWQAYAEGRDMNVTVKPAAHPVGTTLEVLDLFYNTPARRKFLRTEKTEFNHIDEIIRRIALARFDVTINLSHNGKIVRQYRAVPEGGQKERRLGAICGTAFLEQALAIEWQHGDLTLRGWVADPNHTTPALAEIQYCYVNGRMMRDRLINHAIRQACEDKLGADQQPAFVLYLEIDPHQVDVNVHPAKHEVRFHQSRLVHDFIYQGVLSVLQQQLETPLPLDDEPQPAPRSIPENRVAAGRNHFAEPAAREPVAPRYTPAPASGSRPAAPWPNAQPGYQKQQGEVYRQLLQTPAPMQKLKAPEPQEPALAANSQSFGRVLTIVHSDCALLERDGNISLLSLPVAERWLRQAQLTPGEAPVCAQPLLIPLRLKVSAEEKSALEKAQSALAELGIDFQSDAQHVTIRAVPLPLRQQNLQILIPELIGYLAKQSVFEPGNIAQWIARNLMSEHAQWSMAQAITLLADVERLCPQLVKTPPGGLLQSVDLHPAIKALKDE

5.3 kb ssDNA
K half: 24 nM
